Literature values in PMC11668491.
pKd: −log10 of the molar value.

Target: UBC2 (Saccharomyces cerevisiae) (UniProt P06104)
Sequence of UniProt P06104 (P06104 whole entry): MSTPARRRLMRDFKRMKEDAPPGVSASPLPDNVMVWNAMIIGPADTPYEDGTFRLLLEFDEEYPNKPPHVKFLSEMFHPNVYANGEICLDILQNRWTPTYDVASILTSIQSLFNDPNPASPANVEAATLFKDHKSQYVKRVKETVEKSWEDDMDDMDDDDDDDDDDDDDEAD

UBR1 U2BR (from UniProt P19812)
pKd: 6.85
